For assay [1], the target named is STAG2^R370Q–RAD21 complex (human | , UniProt Q8N3U4 1-1231; O60216 1-631, R370Q). Kind of assay: ITC.
Assay [2] concerns the target T1, STAG2–RAD21 complex (wild type) (human | , UniProt Q8N3U4 1-1231; O60216 1-631).
T1 chain 1: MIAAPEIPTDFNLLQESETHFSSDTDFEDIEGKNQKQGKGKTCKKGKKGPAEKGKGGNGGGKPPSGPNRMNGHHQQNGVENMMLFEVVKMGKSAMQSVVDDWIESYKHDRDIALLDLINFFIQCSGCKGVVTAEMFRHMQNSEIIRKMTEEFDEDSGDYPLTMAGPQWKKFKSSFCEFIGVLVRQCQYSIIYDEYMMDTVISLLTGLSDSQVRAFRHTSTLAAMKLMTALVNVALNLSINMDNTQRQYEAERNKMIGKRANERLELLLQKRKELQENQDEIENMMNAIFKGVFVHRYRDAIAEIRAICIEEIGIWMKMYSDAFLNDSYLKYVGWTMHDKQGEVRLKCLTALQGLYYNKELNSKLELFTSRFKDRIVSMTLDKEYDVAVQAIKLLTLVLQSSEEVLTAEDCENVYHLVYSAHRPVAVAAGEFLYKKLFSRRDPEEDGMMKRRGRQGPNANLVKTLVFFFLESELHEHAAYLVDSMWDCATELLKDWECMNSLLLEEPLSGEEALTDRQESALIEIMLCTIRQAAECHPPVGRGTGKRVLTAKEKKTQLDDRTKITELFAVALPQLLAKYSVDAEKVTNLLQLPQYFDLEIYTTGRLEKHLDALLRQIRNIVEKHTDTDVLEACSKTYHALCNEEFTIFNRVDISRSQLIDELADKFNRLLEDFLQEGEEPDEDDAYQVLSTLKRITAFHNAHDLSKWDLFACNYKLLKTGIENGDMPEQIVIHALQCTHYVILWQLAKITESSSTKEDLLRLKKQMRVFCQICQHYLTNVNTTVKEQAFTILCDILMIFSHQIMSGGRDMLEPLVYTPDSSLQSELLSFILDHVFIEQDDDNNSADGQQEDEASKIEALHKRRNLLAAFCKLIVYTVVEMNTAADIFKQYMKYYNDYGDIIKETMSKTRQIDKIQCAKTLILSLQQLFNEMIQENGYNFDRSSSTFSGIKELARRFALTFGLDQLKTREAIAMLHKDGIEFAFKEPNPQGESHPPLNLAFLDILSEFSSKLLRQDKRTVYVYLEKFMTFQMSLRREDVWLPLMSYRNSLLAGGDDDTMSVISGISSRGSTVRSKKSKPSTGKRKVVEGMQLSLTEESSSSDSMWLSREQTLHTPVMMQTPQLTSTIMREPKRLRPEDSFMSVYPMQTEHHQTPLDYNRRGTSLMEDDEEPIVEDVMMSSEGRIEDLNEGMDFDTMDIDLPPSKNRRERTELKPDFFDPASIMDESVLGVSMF
T1 chain 2: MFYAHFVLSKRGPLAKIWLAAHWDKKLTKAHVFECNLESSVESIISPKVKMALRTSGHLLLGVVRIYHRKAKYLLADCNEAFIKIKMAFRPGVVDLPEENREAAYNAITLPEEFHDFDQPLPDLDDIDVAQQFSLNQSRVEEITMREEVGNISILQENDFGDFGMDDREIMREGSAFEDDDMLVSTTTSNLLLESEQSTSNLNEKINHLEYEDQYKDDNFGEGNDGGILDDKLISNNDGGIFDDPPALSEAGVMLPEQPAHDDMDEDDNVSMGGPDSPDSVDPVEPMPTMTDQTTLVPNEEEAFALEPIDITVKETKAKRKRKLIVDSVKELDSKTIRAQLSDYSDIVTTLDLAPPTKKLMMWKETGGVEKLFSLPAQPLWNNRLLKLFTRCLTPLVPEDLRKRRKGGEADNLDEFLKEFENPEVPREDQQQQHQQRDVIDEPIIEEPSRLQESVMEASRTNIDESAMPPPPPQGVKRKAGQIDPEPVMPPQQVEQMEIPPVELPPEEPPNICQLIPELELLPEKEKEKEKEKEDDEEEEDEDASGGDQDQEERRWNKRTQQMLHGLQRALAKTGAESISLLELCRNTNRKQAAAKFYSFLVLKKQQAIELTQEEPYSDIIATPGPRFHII
Kind of assay: ITC.

In paper PMC11319201 (2024) one finds Kd data, which are given here for 1 molecule.

STAG2^R370Q–RAD21 complex, sequence (Q8N3U4 whole entry R370Q, chain 1 of 2, one chain of several): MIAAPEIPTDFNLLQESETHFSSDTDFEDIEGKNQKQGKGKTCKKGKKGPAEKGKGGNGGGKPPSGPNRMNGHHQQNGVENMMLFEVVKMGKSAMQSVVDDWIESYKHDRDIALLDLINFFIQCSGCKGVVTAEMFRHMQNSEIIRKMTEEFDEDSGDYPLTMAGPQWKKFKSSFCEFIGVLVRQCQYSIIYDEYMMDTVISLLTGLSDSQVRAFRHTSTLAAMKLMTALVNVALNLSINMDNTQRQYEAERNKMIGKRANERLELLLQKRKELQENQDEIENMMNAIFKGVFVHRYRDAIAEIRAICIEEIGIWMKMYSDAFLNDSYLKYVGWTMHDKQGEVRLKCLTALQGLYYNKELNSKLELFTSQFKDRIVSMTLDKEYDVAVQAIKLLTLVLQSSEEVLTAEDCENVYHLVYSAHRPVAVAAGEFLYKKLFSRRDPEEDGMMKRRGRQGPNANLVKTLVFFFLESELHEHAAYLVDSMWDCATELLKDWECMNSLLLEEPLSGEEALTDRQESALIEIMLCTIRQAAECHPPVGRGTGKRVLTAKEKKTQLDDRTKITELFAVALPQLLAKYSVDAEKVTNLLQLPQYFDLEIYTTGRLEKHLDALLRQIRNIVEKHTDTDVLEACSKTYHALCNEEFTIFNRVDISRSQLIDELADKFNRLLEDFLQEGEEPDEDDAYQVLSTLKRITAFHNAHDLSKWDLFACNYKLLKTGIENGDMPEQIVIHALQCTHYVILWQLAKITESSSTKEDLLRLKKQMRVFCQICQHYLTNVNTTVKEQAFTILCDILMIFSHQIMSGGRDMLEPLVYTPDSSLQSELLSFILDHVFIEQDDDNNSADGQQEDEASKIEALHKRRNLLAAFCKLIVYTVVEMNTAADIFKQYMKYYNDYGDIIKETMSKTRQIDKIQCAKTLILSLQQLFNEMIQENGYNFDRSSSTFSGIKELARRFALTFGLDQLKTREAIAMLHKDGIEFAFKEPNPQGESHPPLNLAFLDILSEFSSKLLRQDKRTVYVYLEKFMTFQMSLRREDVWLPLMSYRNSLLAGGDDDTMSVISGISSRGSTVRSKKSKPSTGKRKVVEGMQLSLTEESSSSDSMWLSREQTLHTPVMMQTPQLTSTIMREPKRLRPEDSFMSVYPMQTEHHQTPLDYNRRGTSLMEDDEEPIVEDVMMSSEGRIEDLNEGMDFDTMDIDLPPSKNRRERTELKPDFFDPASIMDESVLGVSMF

DVSVYDFEEE [CTCF peptide]: the Kd amounted to 21.7 µM in assay [1] and 1.92 µM in assay [2].
